According to patent US20100061991A1:

Target: human DCIR (dendritic cell immunoreceptor), full length, isotype 1 (human) (UniProt Q9UMR7)
Test: cell-based or functional assay

Sequence of UniProt Q9UMR7 (Q9UMR7 whole entry): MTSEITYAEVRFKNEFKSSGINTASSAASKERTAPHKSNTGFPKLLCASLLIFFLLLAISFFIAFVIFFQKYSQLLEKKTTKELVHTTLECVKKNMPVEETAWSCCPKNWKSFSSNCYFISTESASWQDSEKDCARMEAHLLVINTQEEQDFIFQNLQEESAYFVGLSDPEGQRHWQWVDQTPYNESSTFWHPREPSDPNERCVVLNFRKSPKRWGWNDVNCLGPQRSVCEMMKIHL

## HIV-1 NL4-3balenv virions (R5-tropic; NL4-3 with the env gene of HIV-1 Bal)
  reduction in virus transfer from IM-MDDC to CD4+ T cells after DCIR-specific siRNA, in absence of EFV: 30%
  reduction in virus transfer from IM-MDDC to CD4+ T cells after DCIR-specific siRNA, in cells treated with EFV: 40%
